Test: label from the status in PepcDB records

Sequence	protein production
MCEHHHAAKHILCSQCDMLVALPRLEHGQKAACPRCGTTLTVAWDAPRQRPTAYALAALFMLLLSNLFPFVNMNVAGVTSEITLLEIPGVLFSEDYASLGTFFLLFVQLVPAFCLITILLLVNRAELPVRLKEQLARVLFQLKTWGMAEIFLAGVLVSFVKLMAYGSIGVGSSFLPWCLFCVLQLRAFQCVDRRWLWDDIAPMPELRQPLKPGVTGIRQGLRSCSCCTAILPADEPVCPRCSTKGYVRRRNSLQWTLALLVTSIMLYLPANILPIMVTDLLGSKMPSTILAGVILLWSEGSYPVAAVIFLASIMVPTLKMIAIAWLCWDAKGHGKRDSERMHLIYEVVEFVGRWSMIDVFVIAVLSALVRMGGLMSIYPAMGALMFALVVIMTMFSAMTFDPRLSWDRQPESEHEES	failed
MCEYTYSNGKKCRRKPLKGSKYCSLHIPFEEGELLYGDRIKYIKKRAFERALERGIRNFEGVKLYDVIIVGKEINEALIFRNSIIKRLVIVTSKIKSLSLIDTTIDTLVIVNSEVDFFYVNGGSIYGVSICSVKFSSSILFRDSSIRYVMINSTEFSPKEVTTEEEFGEKVRIAGRIELANLKDVRRIALNSKYPLMAKIMEEFGIKLSLDRKKPVRVHTLTITGVEFDESPRFRKQVRIFINRFSGQLIFENLSVPGHVEIVNSRVRYPEFVHVIIHNNLVLRNTRLYSDENWNLAYLPNLLAELNVYGFIVIDNCQFNNPYLAEVFYRIARTTWEGSGDKENADEYYYLEMLARRKKVIQHYRKGPRTLKKMVKLLEVLFEFLFADLTCKYGTDWKRPVFLWMGLVIFVFPVFYALTKSVVPTSSLFDYVYFSIVTATTLGYGDLHPIGVGKVIASIEAIFGMFMWAVFLTVFARKYMR	failed
MCGDCVEKEYPNRGNTCLENGSFLLNFTGCAVCSKRDFMLITNKSLKEEDGEEIVTYDHLCKNCHHVIARHEYTFSIMDEFQEYTMLCLLCGKAEDTISILPDDPRQMTLLF	failed
MCMLEPSKIFKALSNPINLKILTLLRSSSFHPRELARILNRDETDISRRLRQLERLGLIKGKWERVDGKNVRVYSLKVSEIRIFMHPTKLEVKVGENESYEAPIEWESSPRVEVFVGRKRELSIIRNAKGVVVIYGIAGIGKTSLAAKAFPNAYWYNVTGLEDFKYFAWQLGLFLSSIGFEDLLEYLRGGGNNENDIFKLITEGIEKTGAIIIIDDFHKFQDEKVNYLLSYLAPRIKKGKVIITTRIRPNLGNEGVTYVNLKGLNPEEAYSLAREKEKSMTPEEFAKLYKLTFGHPLMLNLILESSEILATGKDTVFNFLFEEVYQMLNEEEKDLLSILSLFDEPIEYEGIKFLYDRNPFVPLYSLMKKGLIEKKGEKYFVHDMVREFVREVSNQEEKEVYLRHVNFLLKSKTPINFLRAFKYAIKVGSSELIRNLVELRVKEFYRIIVDFPRMYQRLLMEVEDNPYAKIEIAIIEVQRGLFEKAIKLLKEAEPYVDEFFKCEIYSWLADAYMELENLEKAERYLKKTKEIVEKINDMYAWFSYYAEKTKYEYYKENSREALKSALKELEIIRKIGDPEKEGLVLLHVGDIYLHMGNYEKGISYYQEALKMAKAYGIKFLEHISYMELAKGYYQLKLYEKASEYSEKAANYFLMIRNYRRATDAMAYGSVSYIATKNLEKAEKFAKEMIRIAQSTDYPLAWAGYIFLAAVDFLKGDDWREDYNLGKAHLKEYPWLFEAVLDELKKVFDLSNFK	failed
MCQTCLSWYARCVAPYFVHAGCSAGAFSQMRRRVIPRAEGVVVEVGFGSGLNLPYYDAARVERLVGIDPDGTMLGLAAPKSRAMPFAVECIRAGGESLPLADGIADTVVVTYAFCTIPDPQAALSEIRRVLKPRGRLIFIEHGQAEGPRGRRWQQRLNRLWGSIAGGCHLNRDPLRLIGGAGFRLLEVQHGRFPLPLWQLGSHHAGIAAAG	failed
MCRSGSRCCPPIKLRVACVVAASILTARAGTYAIAACYVAALRVMDQRIAMSLQVLGAGLGRTGTLSLKFALEHLGFGPCYHATEVAANMRTALPLWNAAERGAADWSAIFAGYRSSTDHPGCYYWRQLIEVYPQAKVVLTVRDPDSWFESVTQTILMPGRKSTFVGPEGETFSTFLKQQMGGRSQDRAFMVDYFNRWNQAVIDTVPADRLLVFSARQGWAPLCSFLGVPVPHKPYPHLHARPRLRWFTRGLRLPDDVAARERHVREYLEYLREDLFG	failed
MCTGTKSFFLLQRFKLKEDVTMEQKPVLDVNEVPKPGKWLFLSIQHLFAMFGSTVLVPFLTGLNPSVALISSGLGTLAFLLITKGQVPAYLGSSFAFIAPIITAKTAGGPGAAMLGGLLAGLVYILISLGIKKSGSEWIMKLLPPIVVGPVVMVIGLALAHTAVNMAMNGADGKYSFTHFSVALVTLAITIICSIFGRGFFSIIPVLLGIIGGYIFAYFQGLVDLKPVAEAKWFVVPDFTVPFVTYTPEFSWKIVLLMVPVALVTISEHIGHQIVLGNVIKRDLIEKPGLHRSIFGDGVATLIASLIGGPPNTTYGENIGVLAITRAYSVYLFIGSAVFAIMFGFIGKISALIHSIPTPVMGGVSILLFGVIASSGLRMMVDDKTDLSDKRNLMIASVILVIGIGGAVLHVGESFQVEGMALAAIVGVLLNLLLPETKQIKQSKQIAS	failed
MCYAASKLWNVCNYERHHYKELGLEKYPDWYYQKKAHKGDLWYRQLPSQTAQETCKQLDKAWKSFYVLKKTGGIKEPNPPRFKQDNIPVTYMQMGIRHEKGSDQLRLSLPRDLKSYMEETYGIHEKFLYLENKIFRNMDHIKQLRIYPPENGTCELIVIYEIEEPEQLSQNGHYLSVDLGLHNLMTCYDSGNGRTFILGRKYLSLERYFHKEIARVQSVWYAQQSERGIKYPKSSKHIQRLYRKKQNAVKDYLHKTTRWIAEYCRKEDIRCVVVGDIRNIRKEKDMGHKTNQKFHGLPYNRLYIMLEYKLKLYGIQLIKQEESYTSQCSPLSPEVSKRHAEASNRKERGMYITDGVRFNADAVGAFNILRKHLSVSGKQKEMSVTGLKTPEIIKVAA	failed
MDAAKRGFPPVVDAKTCVLILGSLPGDASLAAGQYYGHPRNAFWRLMEGVIDAPLVVRAYEDRLVTLLAHGVGLWDVIETARRPGSLDAAIREPAANDLMALIDTLPALRLVAFNGGTAGRLGGRLIGTRVSTLALPSSSPAYAARTFAQKAAAWAALRDGLADTYSRPHPEPVEGPGRPPRRGRPAPRQP	failed
MDAAVIVPAYNEAESLARCLAPFESQPVELVVVVGGDDGTEQVARDTPFVDTVVRCDEGGAGIARNRGAAAATAPILLFTDADTVVPEDWVRLHLRHYADDEVIGVGGPARPLEDSLKHRVLFKLLSDYWYRVSWPLGFVQQPGFNCSFRADAFKAAGGFNEDIPFMEDTELSLRMKDYGRIVYDADSCVATSARREADEGYVSLFAKYVRGYANHYILRREFDADYFLEHHHHHH	failed
MDAEEKDGVLYFEGQVLTGAKVNSVIDHTLLDFGCEAEETIVSCGEDTSNPHGTTEGPLRANAPIILDIFPRSKKKRYFADMTRTVLRGEASEKLKEMYETVLVAQQKALEMVKPGIHSSEIHRAVCDLFEARGYHTYRSGSKAGFTHSTGHGVGLDIHELPSVGESGVLLETGNVITIEPGLYYPGIGGIRLEDMVLVTKTGYENFTGLEKKFVLKSFYNLEHHHHHH	not failed
MDAEGNLFMSWRDGGTFGIARINEQQNIVTPLIEADAANRILYANGLTVDRATGMLTAAHESVKEVTFTFDPREAWYPRQRNIKYSQSDLNSIVDADRYKNFVTFCPYDGYLYTRYRDGKIAKIDPNTFEGHIIHQGPSGSQYGQAINPAKPWLLYITLHSNAPTAYRQGISVLDLRDPDGTGGFKRLNAPGGSAFRDGPIEDALFNYPKDIKFDNDGNMFVADYGNHCIRMISADNIVTTVAGQPGVAGYKDGGPVESLFKNPWGVAVNEQGDIYIADWGNARIRKLVIELEHHHHHH	failed
MDAMEFFRQSAGQWRSQRTTHHLAFRRAENGDSSISVEALEKDDPRVIEICTMHEVDPATAIGGAYVSWQGSMEWDRDAEGHSGTTVFALVPDDASGRSGQLLRERGYAEIVPVIGRFELDENNNLNLVTDYETMSAVEQFWFMGPSLRLRASTVTRFGGLSTAAFCAEVRQTEAAADSEPLKADQLYSSLGW	failed
MDAPTSQRYTAKARWLHWIMAALIVLAYTLILSRTQFGKGSEYRTLVVQSHFWVGIVVLVLAFFRVAERRRQRPPGITPPLEGVLRAAATLSHYALYAFLFTQPLLGLLTVMVEKGSLPIPLTDLQIPWPLPISDHTAEYFEDLHKLLGKIFYYVIGLHVVAALWHHIVRKDNTLKRML	failed
MDARIVNALIGSVYETIRDVLGIEPKTGKPSTVSHIEIPHSLVTVIGITGGIEGSLIYSFSSETALKVVSAMMGGMEYNQLDELALSAIGELGNMTAGKLAMKLEHLGKHVDITPPTVVSGRDLKIKSFGVILKLPISVFSEEDFDLHLSVKSGG	not failed

— a protein production outcome set (Wang et al. 2014)
